Article doi:10.1101/2020.07.12.199869

Target: low-density lipoprotein receptor-related protein 1 (mouse (endogenous in bEnd3))
Experiment: proximity ligation

Chain of low-density lipoprotein receptor-related protein 1 (mouse (endogenous in bEnd3)) (Q91ZX7 20-4545): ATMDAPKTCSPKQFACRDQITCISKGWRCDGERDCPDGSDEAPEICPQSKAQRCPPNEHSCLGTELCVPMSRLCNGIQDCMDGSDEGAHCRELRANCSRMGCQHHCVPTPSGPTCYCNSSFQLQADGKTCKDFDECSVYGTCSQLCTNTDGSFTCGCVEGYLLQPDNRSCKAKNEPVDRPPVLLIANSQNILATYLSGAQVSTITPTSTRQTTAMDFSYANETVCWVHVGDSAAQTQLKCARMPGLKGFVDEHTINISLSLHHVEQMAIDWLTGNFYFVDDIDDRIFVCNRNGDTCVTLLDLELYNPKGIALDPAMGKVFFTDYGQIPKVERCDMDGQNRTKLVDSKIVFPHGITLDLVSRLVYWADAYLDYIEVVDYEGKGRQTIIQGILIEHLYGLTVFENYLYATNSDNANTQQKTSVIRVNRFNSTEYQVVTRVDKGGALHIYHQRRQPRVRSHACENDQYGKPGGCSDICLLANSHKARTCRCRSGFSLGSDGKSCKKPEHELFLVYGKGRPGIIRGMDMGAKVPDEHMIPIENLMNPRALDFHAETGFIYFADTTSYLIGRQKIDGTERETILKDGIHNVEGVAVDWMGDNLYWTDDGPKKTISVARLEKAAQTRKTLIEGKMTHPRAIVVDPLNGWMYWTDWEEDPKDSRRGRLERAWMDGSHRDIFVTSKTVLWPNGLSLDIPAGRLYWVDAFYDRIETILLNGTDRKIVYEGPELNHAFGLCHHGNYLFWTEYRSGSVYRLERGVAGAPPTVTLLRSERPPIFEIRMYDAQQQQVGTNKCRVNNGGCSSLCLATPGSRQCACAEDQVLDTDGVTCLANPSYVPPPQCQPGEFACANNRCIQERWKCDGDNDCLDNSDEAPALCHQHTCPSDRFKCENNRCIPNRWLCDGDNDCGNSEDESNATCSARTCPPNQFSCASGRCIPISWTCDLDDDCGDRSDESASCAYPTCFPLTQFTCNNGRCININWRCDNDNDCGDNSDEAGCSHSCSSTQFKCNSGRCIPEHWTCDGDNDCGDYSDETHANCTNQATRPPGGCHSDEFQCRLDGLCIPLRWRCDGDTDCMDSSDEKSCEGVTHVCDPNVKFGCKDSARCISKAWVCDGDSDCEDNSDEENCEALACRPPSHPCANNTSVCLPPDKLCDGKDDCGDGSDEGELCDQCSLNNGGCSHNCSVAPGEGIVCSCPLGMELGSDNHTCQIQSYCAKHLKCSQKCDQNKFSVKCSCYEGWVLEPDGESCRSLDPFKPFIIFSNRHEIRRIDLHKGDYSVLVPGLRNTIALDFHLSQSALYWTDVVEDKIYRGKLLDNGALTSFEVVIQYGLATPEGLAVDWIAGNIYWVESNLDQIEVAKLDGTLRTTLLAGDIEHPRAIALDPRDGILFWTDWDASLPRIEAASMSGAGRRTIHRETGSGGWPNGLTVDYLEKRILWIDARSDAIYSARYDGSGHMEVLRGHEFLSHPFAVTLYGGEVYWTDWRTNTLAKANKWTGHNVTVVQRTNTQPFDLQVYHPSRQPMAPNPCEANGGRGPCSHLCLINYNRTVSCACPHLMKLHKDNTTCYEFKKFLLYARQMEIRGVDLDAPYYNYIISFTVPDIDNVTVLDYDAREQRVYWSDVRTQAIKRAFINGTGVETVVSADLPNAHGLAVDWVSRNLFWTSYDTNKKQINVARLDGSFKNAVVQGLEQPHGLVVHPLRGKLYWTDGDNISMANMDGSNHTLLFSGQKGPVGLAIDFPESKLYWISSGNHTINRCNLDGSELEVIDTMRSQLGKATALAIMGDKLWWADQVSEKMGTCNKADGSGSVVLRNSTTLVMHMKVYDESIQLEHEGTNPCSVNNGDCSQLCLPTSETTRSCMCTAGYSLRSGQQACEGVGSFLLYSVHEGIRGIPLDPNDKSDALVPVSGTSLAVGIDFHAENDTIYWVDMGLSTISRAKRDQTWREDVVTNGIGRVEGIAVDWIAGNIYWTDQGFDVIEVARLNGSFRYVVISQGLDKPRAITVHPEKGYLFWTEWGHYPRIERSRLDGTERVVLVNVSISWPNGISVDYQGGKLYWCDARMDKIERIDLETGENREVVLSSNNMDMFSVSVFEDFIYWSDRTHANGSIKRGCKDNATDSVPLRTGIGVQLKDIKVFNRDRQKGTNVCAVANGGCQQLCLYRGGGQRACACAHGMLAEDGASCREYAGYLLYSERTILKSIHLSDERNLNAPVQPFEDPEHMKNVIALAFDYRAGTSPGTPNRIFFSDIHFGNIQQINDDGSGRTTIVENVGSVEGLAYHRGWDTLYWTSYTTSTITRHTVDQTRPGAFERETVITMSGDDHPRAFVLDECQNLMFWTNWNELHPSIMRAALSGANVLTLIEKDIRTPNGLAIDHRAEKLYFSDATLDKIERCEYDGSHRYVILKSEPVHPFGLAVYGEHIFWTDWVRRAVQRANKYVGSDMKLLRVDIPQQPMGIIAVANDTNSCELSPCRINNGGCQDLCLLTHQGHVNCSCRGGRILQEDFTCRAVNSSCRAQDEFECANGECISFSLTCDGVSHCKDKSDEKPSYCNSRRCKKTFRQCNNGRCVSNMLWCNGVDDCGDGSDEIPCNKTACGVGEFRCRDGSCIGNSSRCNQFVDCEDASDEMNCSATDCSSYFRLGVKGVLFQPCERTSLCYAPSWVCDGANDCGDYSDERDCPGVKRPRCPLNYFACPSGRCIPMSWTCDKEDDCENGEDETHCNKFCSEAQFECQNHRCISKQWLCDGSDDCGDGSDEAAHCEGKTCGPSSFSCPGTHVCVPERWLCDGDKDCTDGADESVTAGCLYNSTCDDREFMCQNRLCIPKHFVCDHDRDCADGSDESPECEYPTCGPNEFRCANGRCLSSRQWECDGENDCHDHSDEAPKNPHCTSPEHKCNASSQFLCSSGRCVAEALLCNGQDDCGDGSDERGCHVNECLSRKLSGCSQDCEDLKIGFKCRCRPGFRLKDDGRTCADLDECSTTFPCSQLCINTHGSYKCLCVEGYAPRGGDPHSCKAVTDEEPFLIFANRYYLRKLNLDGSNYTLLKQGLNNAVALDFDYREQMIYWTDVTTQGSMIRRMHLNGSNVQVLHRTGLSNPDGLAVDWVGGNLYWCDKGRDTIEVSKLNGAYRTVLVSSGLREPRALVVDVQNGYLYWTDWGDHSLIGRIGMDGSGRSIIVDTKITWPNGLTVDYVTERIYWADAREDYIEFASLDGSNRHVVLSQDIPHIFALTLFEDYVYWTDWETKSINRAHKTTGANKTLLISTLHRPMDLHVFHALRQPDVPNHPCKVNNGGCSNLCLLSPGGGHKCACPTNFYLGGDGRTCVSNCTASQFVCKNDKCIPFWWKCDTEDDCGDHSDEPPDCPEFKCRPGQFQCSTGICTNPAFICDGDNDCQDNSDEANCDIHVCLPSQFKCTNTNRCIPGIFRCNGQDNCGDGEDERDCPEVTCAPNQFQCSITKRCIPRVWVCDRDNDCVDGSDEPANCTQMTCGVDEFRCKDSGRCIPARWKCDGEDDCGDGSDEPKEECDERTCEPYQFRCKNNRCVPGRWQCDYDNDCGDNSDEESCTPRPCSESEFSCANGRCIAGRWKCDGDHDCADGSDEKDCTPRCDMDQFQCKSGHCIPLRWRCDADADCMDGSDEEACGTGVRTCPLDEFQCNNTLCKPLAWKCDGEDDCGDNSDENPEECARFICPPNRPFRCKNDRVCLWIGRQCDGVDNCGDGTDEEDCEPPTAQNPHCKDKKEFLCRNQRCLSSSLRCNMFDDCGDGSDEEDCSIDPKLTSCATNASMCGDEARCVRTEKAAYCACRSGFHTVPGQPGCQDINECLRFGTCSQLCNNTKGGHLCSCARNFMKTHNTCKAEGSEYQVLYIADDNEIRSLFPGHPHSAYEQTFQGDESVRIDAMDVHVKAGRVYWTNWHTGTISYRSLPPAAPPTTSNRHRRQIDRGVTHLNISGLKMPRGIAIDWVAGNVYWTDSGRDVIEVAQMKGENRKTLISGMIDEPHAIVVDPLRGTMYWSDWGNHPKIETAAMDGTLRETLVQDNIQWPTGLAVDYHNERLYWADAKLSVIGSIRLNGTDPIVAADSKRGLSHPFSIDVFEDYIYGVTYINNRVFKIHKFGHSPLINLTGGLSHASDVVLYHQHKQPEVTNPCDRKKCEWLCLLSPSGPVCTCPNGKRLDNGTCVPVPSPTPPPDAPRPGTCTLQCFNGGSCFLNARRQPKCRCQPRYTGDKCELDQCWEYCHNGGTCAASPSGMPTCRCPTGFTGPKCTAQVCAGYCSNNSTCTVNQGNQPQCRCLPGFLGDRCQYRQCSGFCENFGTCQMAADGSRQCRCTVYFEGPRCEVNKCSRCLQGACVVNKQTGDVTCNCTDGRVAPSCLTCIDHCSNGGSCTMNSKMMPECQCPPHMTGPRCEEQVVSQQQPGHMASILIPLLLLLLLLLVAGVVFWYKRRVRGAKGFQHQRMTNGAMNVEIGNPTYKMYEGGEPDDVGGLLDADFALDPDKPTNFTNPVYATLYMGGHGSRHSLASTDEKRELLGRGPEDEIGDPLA

syndapin-2 (from UniProt Q9WVE8 1-486) (natural protein)
PLA dots per cell (dots per cell): 250

B1: apolipoprotein E (ligand)
chain: EGEPEVTDQLEWQSNQPWEQALNRFWDYLRWVQTLSDQVQEELQSSQVTQELTALMEDTMTEVKAYKKELEEQLGPVAEETRARLGKEVQAAQARLGADMEDLRNRLGQYRNEVHTMLGQSTEEIRARLSTHLRKMRKRLMRDAEDLQKRLAVYKAGAREGAERGVSAIRERLGPLVEQGRQRTANLGAGAAQPLRDRAQAFGDRIRGRLEEVGNQARDRLEEVREHMEEVRSKMEEQTQQIRLQAEIFQARLKGWFEPIVEDMHRQWANLMEKIQASVATNPIITPVAQENQ
PLA dots per cell (dots per cell): 80
